Laboratory results from the supplement of paper PMC10126150.
± gives the standard deviation of the averaged measurements.

The sequences below were run on ATP (assay: switch fluorescence ratio, 500 uM ATP over buffer (Cy3 cluster intensity, sum of 5 cycles each) (fold (ratio)); higher = stronger signal-on switching upon ATP binding; sequences stand for … in TCGTCGGCAGCGTCAGATGTGTATAAGAGACAGTTTTTTTTTTTTTTTTTTTTTTTTT…TC). Settings: aptamer strand: ATP DNA aptamer (quencher-CACCTGGGGGAGTATTGCGGAGGAAGG + anchor), 100 nM annealed; ATP concentration: 500 uM.
In short: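 Cy3-labelled switching-strand clusters on a modified Illumina MiSeq flow-cell were annealed to 100 nM quencher-labelled ATP aptamer, imaged in selection buffer, then imaged after 15 min with 500 uM ATP at 22 °C. Five buffer/ATP cycles ran, with NaOH stripping and re-annealing between them. The fluorescence ratio is summed target-cycle over summed buffer-cycle Cy3 intensity per cluster, averaged per switch-domain sequence. Clusters outside 100-1000 RFU were excluded.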
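Note: ATP exposure 15 min at 22 °C before imaging.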

| Sequence | switch fluorescence ratio |
| --- | --- |
| AGAGAGACGT | 0.995 ± 0.029 |
| AGAGAGGGAA | 1 ± 0.025 |
| AGAGAGGTTA | 1.02 ± 0.014 |
| AGAGAGTTTT | 0.984 ± 0.021 |
| AGAGATATGA | 1.0142 ± 0.00072 |
| AGAGATGCTT | 0.99 ± 0.032 |
| AGAGCAGGTT | 1.02 ± 0.014 |
| AGAGCATTGA | 1.013 ± 0.007 |
| AGAGCGCGCC | 1.02 ± 0.05 |
| AGAGCTGTTG | 1.01 ± 0.019 |
| AGAGGAAAAC | 1.08 ± 0.023 |
| AGAGGACTTT | 1.001 ± 0.0029 |
| AGAGGAGCGG | 1.02 ± 0.013 |
| AGAGGAGTTG | 1.03 ± 0.046 |
| AGAGGATGGG | 1 ± 0.034 |
| AGAGGCCTGT | 1.01 ± 0.0086 |
| AGAGGGAAGA | 1.01 ± 0.037 |
| AGAGGGCTGT | 1.01 ± 0.15 |
| AGAGGGGCAG | 0.961 ± 0.016 |
| AGAGGGGCGT | 0.999 ± 0.033 |
| AGAGGGGGAA | 0.978 ± 0.014 |
| AGAGGGGGAG | 0.979 ± 0.027 |
| AGAGGGTCCA | 0.962 ± 0.021 |
| AGAGGGTTAA | 0.988 ± 0.031 |
| AGAGGTAACT | 0.993 ± 0.014 |

| Sequence | switch fluorescence ratio |
| --- | --- |
| AGAGGTAAGC | 1.02 ± 0.019 |
| AGAGGTCTAC | 0.982 ± 0.031 |
| AGAGGTGCAT | 1.02 ± 0.017 |
| AGAGTAATCG | 0.983 ± 0.07 |
| AGAGTACGTA | 1.041 ± 0.0065 |
| AGAGTAGAGT | 0.9995 ± 0.0088 |
| AGAGTAGGGG | 0.979 ± 0.029 |
| AGAGTATGG | 0.965 ± 0.035 |
| AGAGTATTTG | 0.994 ± 0.014 |
| AGAGTCGTTT | 0.9853 ± 0.0046 |
| AGAGTGAGAG | 0.9931 ± 0.0056 |
| AGAGTGAGGG | 0.977 ± 0.0012 |
| AGAGTGAGTT | 0.9533 ± 0.0045 |
| AGAGTGATCT | 0.98437 ± 0.00057 |
| AGAGTGATGT | 1 ± 0.041 |
| AGAGTGGACA | 1 ± 0.042 |
| AGAGTGGAGA | 1.009 ± 0.0004 |
| AGAGTGTAGG | 1.08 ± 0.034 |
| AGAGTGTGGC | 1.07 ± 0.039 |
| AGAGTTAAAG | 0.9917 ± 0.0072 |
| AGAGTTAAGT | 0.989 ± 0.032 |
| AGAGTTACCG | 1.04 ± 0.017 |
| AGAGTTGGGT | 0.984 ± 0.02 |
| AGAGTTTGT | 0.987 ± 0.014 |
| AGATAATTGG | 1.007 ± 0.0061 |

| Sequence | switch fluorescence ratio |
| --- | --- |
| AGATACTTTC | 1.03 ± 0.024 |
| AGATAGGCGT | 0.9959 ± 0.0056 |
| AGATAGGGCA | 0.994 ± 0.032 |
| AGATAGTTGT | 1.01 ± 0.016 |
| AGATATAACT | 1.021 ± 0.0066 |
| AGATATGAAC | 1.04 ± 0.044 |
| AGATATTTTG | 0.988 ± 0.039 |
| AGATCAAGAG | 0.974 ± 0.04 |
| AGATCAGTGC | 0.997 ± 0.011 |
| AGATCATGCG | 1.02 ± 0.045 |
| AGATCGAGTA | 0.989 ± 0.033 |
| AGATCGGTTT | 1 ± 0.042 |
| AGATCTAAGG | 1 ± 0.019 |
| AGATCTTGCG | 0.979 ± 0.019 |
| AGATGAATTC | 0.982 ± 0.036 |
| AGATGAGCCG | 1.05 ± 0.11 |
| AGATGATATA | 0.999 ± 0.013 |
| AGATGCCTTC | 1.01 ± 0.029 |
| AGATGCTTTA | 0.9908 ± 0.0027 |
| AGATGGAGCT | 0.9875 ± 0.0055 |
| AGATGGAGGA | 0.99 ± 0.033 |
| AGATGGGGAG | 1.04 ± 0.064 |
| AGATGGGGGA | 0.983 ± 0.026 |
| AGATGGTTGC | 0.958 ± 0.021 |
| AGATGTGACG | 0.9686 ± 0.0087 |

| Sequence | switch fluorescence ratio |
| --- | --- |
| AGATGTTTGG | 0.956 ± 0.027 |
| AGATTAAACA | 1.02 ± 0.032 |
| AGATTAGGGG | 1.04 ± 0.041 |
| AGATTAGTTC | 1.002 ± 0.0056 |
| AGATTAGTTG | 1.016 ± 0.0039 |
| AGATTATAGG | 1.01 ± 0.018 |
| AGATTCGTAC | 1.02 ± 0.021 |
| AGATTGCATA | 0.994 ± 0.015 |
| AGATTGGAAT | 0.9968 ± 0.0058 |
| AGATTGGTTA | 0.992 ± 0.021 |
| AGATTGTGCA | 0.963 ± 0.011 |
| AGATTGTTAG | 1.015 ± 0.0027 |
| AGATTTATCC | 0.977 ± 0.065 |
| AGATTTGGTT | 1.01 ± 0.032 |
| AGATTTGTGG | 0.9917 ± 0.0033 |
| AGATTTTCCG | 1.01 ± 0.023 |
| AGATTTTGCG | 0.991 ± 0.01 |
| AGATTTTTAA | 1.004 ± 0.0097 |
| AGATTTTTGA | 0.942 ± 0.069 |
| AGATTTTTGT | 0.972 ± 0.019 |
| AGATTTTTTA | 0.954 ± 0.016 |
| AGCAAATAGT | 1.28 ± 0.028 |
| AGCAAGGGCA | 1.0103 ± 6.2e-05 |
| AGCAAGTCCT | 1.12 ± 0.015 |
| AGCAATAGTT | 2.97 ± 0.051 |

| Sequence | switch fluorescence ratio |
| --- | --- |
| AGCAATTGTG | 1.04 ± 0.029 |
| AGCACATTTG | 0.97 ± 0.017 |
| AGCACGGGAA | 1.03 ± 0.03 |
| AGCACGGTTA | 1.04 ± 0.049 |
| AGCACGTTAT | 1.256 ± 0.012 |
| AGCAGAGAAA | 0.982 ± 0.046 |
| AGCAGAGTTG | 1 ± 0.018 |
| AGCAGGAAGG | 0.9956 ± 0.0041 |
| AGCAGGGGTT | 1 ± 0.053 |
| AGCATAAGGC | 1.02 ± 0.019 |
| AGCATCACTT | 1.04 ± 0.029 |
| AGCATGAGTA | 1.01 ± 0.014 |
| AGCATGATGC | 0.991 ± 0.037 |
| AGCATGCCTG | 1.02 ± 0.058 |
| AGCATGGGGG | 1.01 ± 0.023 |
| AGCATGGTGG | 1.02 ± 0.046 |
| AGCATGTAGA | 0.989 ± 0.046 |
| AGCATTTTCC | 1.135 ± 0.0063 |
| AGCCAAAATA | 1.04 ± 0.017 |
| AGCCAGGGAG | 1.028 ± 0.0056 |
| AGCCAGTTCG | 1 ± 0.012 |
| AGCCATATAG | 1.048 ± 0.0066 |
| AGCCCCATAG | 1.17 ± 0.042 |
| AGCCGAATTT | 0.997 ± 0.019 |
| AGCCGCCCCG | 1.1 ± 0.1 |

| Sequence | switch fluorescence ratio |
| --- | --- |
| AGCCGCTCGT | 0.99 ± 0.033 |
| AGCCGGGGTA | 0.995 ± 0.025 |
| AGCCGTACTC | 1.2 ± 0.23 |
| AGCCGTCAAC | 1.05 ± 0.041 |
| AGCCGTCCCC | 0.993 ± 0.02 |
| AGCCGTTTGA | 1.023 ± 0.0016 |
| AGCCTACTTT | 1 ± 0.038 |
| AGCCTAGGAT | 1.04 ± 0.0021 |
| AGCCTCGTGG | 0.992 ± 0.019 |
| AGCCTGACTG | 1.12 ± 0.033 |
| AGCGAAGGGG | 1.01 ± 0.047 |
| AGCGACGGGA | 1.1 ± 0.048 |
| AGCGAGGGA | 1.029 ± 0.0068 |
| AGCGAGTTTT | 1.01 ± 0.012 |
| AGCGATGGCC | 1.05 ± 0.028 |
| AGCGCAAGAT | 1.791 ± 0.013 |
| AGCGCGGTAA | 1 ± 0.013 |
| AGCGCGTTGT | 1.02 ± 0.044 |
| AGCGGAGAGT | 1 ± 0.029 |
| AGCGGATGCA | 0.985 ± 0.02 |
| AGCGGCATCT | 0.983 ± 0.0093 |
| AGCGGGGGGA | 1.01 ± 0.025 |
| AGCGGGGTTT | 0.987 ± 0.011 |
| AGCGGGTGCC | 1.02 ± 0.039 |
| AGCGGGTTGG | 1.029 ± 0.0082 |

| Sequence | switch fluorescence ratio |
| --- | --- |
| AGCGGTCCGG | 1 ± 0.058 |
| AGCGTACTCG | 1.11 ± 0.047 |
| AGCGTAGGGG | 0.94 ± 0.033 |
| AGCGTATGGG | 0.983 ± 0.035 |
| AGCGTATTGG | 0.998 ± 0.035 |
| AGCGTCGCAG | 0.9715 ± 0.0087 |
| AGCGTGACTG | 0.987 ± 0.019 |
| AGCGTGAGGG | 1.02 ± 0.018 |
| AGCGTGGTGG | 0.958 ± 0.033 |
| AGCGTGTAGG | 1 ± 0.15 |
| AGCGTGTTTA | 1.04 ± 0.036 |
| AGCGTTCAGC | 0.9849 ± 0.0026 |
| AGCTAGTTAC | 1.38 ± 0.014 |
| AGCTATCCCG | 0.991 ± 0.046 |
| AGCTATGTGG | 0.9812 ± 0.0064 |
| AGCTCGCCAC | 1.05 ± 0.046 |
| AGCTCGGGGG | 1 ± 0.034 |
| AGCTGACATT | 0.999 ± 0.034 |
| AGCTGATTC | 1.031 ± 0.0099 |
| AGCTGGGGGT | 1.02 ± 0.06 |
| AGCTGGGGTG | 1.03 ± 0.06 |
| AGCTGTGTGG | 1.01 ± 0.012 |
| AGCTGTTTAG | 1 ± 0.014 |
| AGCTTAAGAC | 1.36 ± 0.041 |
| AGCTTGGGCA | 1.02 ± 0.0095 |

| Sequence | switch fluorescence ratio |
| --- | --- |
| AGCTTGTCAA | 0.9774 ± 0.0067 |
| AGCTTTGCTA | 0.9582 ± 0.0072 |
| AGCTTTGGTA | 1.016 ± 0.0026 |
| AGGAAACTCG | 1.03 ± 0.052 |
| AGGAAAGTTT | 0.955 ± 0.028 |
| AGGAAATGGG | 1 ± 0.036 |
| AGGAACATAG | 1.15 ± 0.2 |
| AGGAAGCAG | 1.003 ± 0.0027 |
| AGGAAGGG | 1.0069 ± 0.00083 |
| AGGAAGGGGC | 0.96 ± 0.018 |
| AGGAATAAAA | 0.961 ± 0.1 |
| AGGAATATCA | 0.998 ± 0.041 |
| AGGACAGTCG | 0.929 ± 0.045 |
| AGGACCGGGG | 1.024 ± 0.0095 |
| AGGACCGGGT | 1.03 ± 0.021 |
| AGGACCGTTA | 1 ± 0.031 |
| AGGACCGTTT | 0.991 ± 0.016 |
| AGGACGACGG | 0.964 ± 0.021 |
| AGGACGTAGC | 1.09 ± 0.018 |
| AGGACTAAGG | 0.98 ± 0.026 |
| AGGACTCCGT | 0.98 ± 0.095 |
| AGGACTGGCA | 0.991 ± 0.038 |
| AGGACTGGTG | 1.01 ± 0.044 |
| AGGACTTAGG | 1.06 ± 0.056 |
| AGGACTTTAA | 1.0405 ± 0.0001 |
